Target: full domain protein A ligand (immobilised on resin) (UniProt P38507)
Test: protein A affinity chromatography, pH gradient elution, POROS MabCapture A Select (Example 5-4)

Peak 1 End pH (elution): 3.95 pH
Peak 1 start pH (elution): 4.17 pH
Substance: GLP-1-Fc (from UniProt P01275 98-128) (Fc fusion)
